Source: US20200199579A1, “Rapid Display Method in Translational Synthesis of Peptide” (PeptiDream Inc., priority 2009, published 2020)

Key:
TNF-α = molecular target: T1, TNF-α (Homo sapiens, UniProt P01375); assay: Verification of mapping: recovery from a 100:1 EMP1SS / TNF-α-DW mixture by TNF-α pull-down, PCR and gel electrophoresis; assay type: binding; conditions: an21-Phe linker; mRNA or cDNA input; FIG. 6
T1 construct: made in house; host or cells: E. coli (co-expressed with biotin ligase BirA)
T1 sequence (P01375 with tags, fused parts or gaps): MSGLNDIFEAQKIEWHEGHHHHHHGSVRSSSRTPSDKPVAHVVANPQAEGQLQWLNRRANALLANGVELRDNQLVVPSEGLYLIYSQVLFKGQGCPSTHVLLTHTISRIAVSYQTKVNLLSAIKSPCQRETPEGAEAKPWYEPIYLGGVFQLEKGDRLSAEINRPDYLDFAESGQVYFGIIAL
Experimental: This mixture was used to perform experiments similar to those described above, and the recovered DNA was amplified by PCR under the following conditions. That is, 20 μL of a reaction solution containing Taq polymerase and a test sample solution in PCR (taq-) buffer was prepared and reacted by temperature cycling of 30 cycles of {94° C. 40 sec, 61° C. 40 sec, 72° C. 40 sec} (with a slope of 0.5° C./sec from 61° C. to 72° C.) using a thermal cycler. 2.5 μL of the reaction product solution was separated by electrophoresis using a gel consisting of TAE (40 mM Tris-acetate, 1 mM EDTA) and 3% agarose (low electroendosmosis, NACALAI TESQUE, INC.), and electrophoretograms were obtained under a transilluminator after staining with ethidium bromide.
A band derived from the mRNA encoding TNF-α-DW is observed at the position of about 90 bp, while a band derived from the mRNA encoding the control EMP1SS is observed at the position of about 150 bp. When the an21-ACCA linker containing no peptidyl acceptor was used, only a band derived from the mRNA of EMP1SS was observed, reflecting the molar ratio of the two types of cDNA in the initial mixture.

[1] = molecular target: T2, Human tumor necrosis factor-alpha (TNF-α) (Homo sapiens, UniProt P01375); assay: Yield of peptide-mRNA complexes presenting TNF-α-DW, recovered with biotinylated TNF-α on streptavidin beads and quantified by real-time PCR; conditions: peptide aptamer TNF-α-DW
T2 construct: made in house; host or cells: E. coli (co-expressed with biotin ligase BirA)
T2 sequence (P01375 with tags, fused parts or gaps): as above
Experimental: In the case where an mRNA is preliminarily prepared by transcription reaction and then translated into a peptide and the resulting peptide is fused to a linker, a peptide-mRNA complex was prepared by the following procedure. First, 4 mM sodium acetate, pH 5.0 and mRNA were mixed in 1:3, and the mixture was heated on a thermoblock at 95° C. for 1 minute and then allowed to stand at room temperature for 5 min. A 25 μM linker solution dissolved in 1 mM sodium acetate was added and the mixture was allowed to stand for 10 minutes to form an mRNA-linker complex. To this were added the other components of the translation system and the mixture was incubated in a constant-temperature water bath (NT-202D, Nissin Scientific Corporation) at 37° C. for 30 minutes, then at room temperature for 12 min, and 0.1 M EDTA (ethylenediaminetetraacetic acid, molecular biology grade, NACALAI TESQUE, INC.) adjusted to pH 7.5 was added at a final concentration of 20 mM, and the mixture was further incubated in the constant-temperature water bath at 37° C. for 30 minutes.
In the case where a cDNA is added to a reaction solution and transcription, translation and fusion to a linker are performed in this reaction solution, a peptide-mRNA complex was prepared by the following procedure. […]

| Substance | binding of the presented peptide to the target protein (TNF-α) | yield of peptide-mRNA complexes ([1]; cDNA added to the reaction solution (one-pot transcription/translation), FIG. 5) [%] | yield of peptide-mRNA complexes ([1]; mRNA added to the translation reaction solution, FIG. 4) [%] |
| --- | --- | --- | --- |
| XQRLHCLYLKH (X: Ac-D-Trp) [TNF-α-DW] | binds to the target protein |  |  |
| 5′-CCCGCCTCCCGCCCCCCGTCC-[SPC18]5-A*-C*-C*-A*-3′ [an21-ACCA] |  | 0.007 | 0.015 |
| XAAGGTYSSHFGPLTWVSKPQGGAA, wherein X is Ac-D-Trp [EMP1SS, reference compound] | does not bind to the target |  |  |
